The supplement of paper PMC9112550, “Optimization of the antimicrobial peptide Bac7 by deep mutational scanning” (BMC Biology, 2022)

Tested on: Escherichia coli TOP10
Assay: shrunken log2 fold change of peptide-encoding DNA abundance (4.5 h post-induction vs induction); higher = less antimicrobial activity (less host growth inhibition)
Conditions: time post-induction: 4.5 h; library: site-saturation at positions 5, 18, 19, 20
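Note: peptides expressed intracellularly from a pBAD plasmid library in pooled LB shake-flask culture, induced with 0.3% L-arabinose, DNA abundance read by NGS, three biological replicates, DESeq2 with apeglm shrinkage.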

| Sequence | shrunken log2 fold change |
| --- | --- |
| RRIRMRPPRLPRPRPRPNYNPRP | -0.678 |
| RRIRMRPPRLPRPRPRPPCCPRP | 0.928 |
| RRIRMRPPRLPRPRPRPPDEPRP | 2.96 |
| RRIRMRPPRLPRPRPRPPESPRP | 2.5 |
| RRIRMRPPRLPRPRPRPPETPRP | 0.807 |
| RRIRMRPPRLPRPRPRPPFHPRP | 0.0707 |
| RRIRMRPPRLPRPRPRPPFNPRP | 0.175 |
| RRIRMRPPRLPRPRPRPPGQPRP | 1.24 |
| RRIRMRPPRLPRPRPRPPHDPRP | 1.47 |
| RRIRMRPPRLPRPRPRPPHRPRP | 0.567 |
| RRIRMRPPRLPRPRPRPPKDPRP | 0.622 |
| RRIRMRPPRLPRPRPRPPKKPRP | 1.01 |
| RRIRMRPPRLPRPRPRPPKTPRP | 0.891 |
| RRIRMRPPRLPRPRPRPPMIPRP | -0.0431 |
| RRIRMRPPRLPRPRPRPPPPPRP | 2.05 |
| RRIRMRPPRLPRPRPRPPPRPRP | 2.36 |
| RRIRMRPPRLPRPRPRPPQFPRP | 0.0882 |
| RRIRMRPPRLPRPRPRPPQRPRP | 1.09 |
| RRIRMRPPRLPRPRPRPPSGPRP | 0.525 |
| RRIRMRPPRLPRPRPRPPVAPRP | 1.3 |
| RRIRMRPPRLPRPRPRPPVDPRP | 1.14 |
| RRIRMRPPRLPRPRPRPPWAPRP | 0.911 |
| RRIRMRPPRLPRPRPRPPWIPRP | 0.248 |
| RRIRMRPPRLPRPRPRPPWTPRP | 1.15 |
| RRIRMRPPRLPRPRPRPPYIPRP | -0.0556 |

| Sequence | shrunken log2 fold change |
| --- | --- |
| RRIRMRPPRLPRPRPRPQASPRP | 0.309 |
| RRIRMRPPRLPRPRPRPQFWPRP | 0.245 |
| RRIRMRPPRLPRPRPRPQGWPRP | 1.01 |
| RRIRMRPPRLPRPRPRPQHTPRP | -0.0951 |
| RRIRMRPPRLPRPRPRPQIPPRP | -0.127 |
| RRIRMRPPRLPRPRPRPQKNPRP | 0.628 |
| RRIRMRPPRLPRPRPRPQLSPRP | -0.102 |
| RRIRMRPPRLPRPRPRPQMAPRP | 0.349 |
| RRIRMRPPRLPRPRPRPQPNPRP | 0.546 |
| RRIRMRPPRLPRPRPRPQPSPRP | 1.11 |
| RRIRMRPPRLPRPRPRPQQAPRP | 0.0303 |
| RRIRMRPPRLPRPRPRPQRFPRP | -0.0093 |
| RRIRMRPPRLPRPRPRPQSHPRP | 0.083 |
| RRIRMRPPRLPRPRPRPQTTPRP | 0.634 |
| RRIRMRPPRLPRPRPRPQVFPRP | 0.281 |
| RRIRMRPPRLPRPRPRPQVVPRP | 0.0936 |
| RRIRMRPPRLPRPRPRPQWVPRP | 0.0772 |
| RRIRMRPPRLPRPRPRPQYGPRP | 0.015 |
| RRIRMRPPRLPRPRPRPQYIPRP | -0.0206 |
| RRIRMRPPRLPRPRPRPRAWPRP | 0.32 |
| RRIRMRPPRLPRPRPRPRCQPRP | 0.00313 |
| RRIRMRPPRLPRPRPRPRDVPRP | 0.372 |
| RRIRMRPPRLPRPRPRPREKPRP | 1.19 |
| RRIRMRPPRLPRPRPRPRFEPRP | 0.36 |
| RRIRMRPPRLPRPRPRPRFNPRP | 0.148 |

| Sequence | shrunken log2 fold change |
| --- | --- |
| RRIRMRPPRLPRPRPRPRICPRP | 0.113 |
| RRIRMRPPRLPRPRPRPRIWPRP | 0.726 |
| RRIRMRPPRLPRPRPRPRIYPRP | -0.0363 |
| RRIRMRPPRLPRPRPRPRKVPRP | 0.767 |
| RRIRMRPPRLPRPRPRPRNAPRP | 2.06 |
| RRIRMRPPRLPRPRPRPRNPPRP | 3.17 |
| RRIRMRPPRLPRPRPRPRQEPRP | 1.13 |
| RRIRMRPPRLPRPRPRPRQSPRP | 0.982 |
| RRIRMRPPRLPRPRPRPRRQPRP | 1.13 |
| RRIRMRPPRLPRPRPRPRRVPRP | 1.3 |
| RRIRMRPPRLPRPRPRPRSEPRP | 0.81 |
| RRIRMRPPRLPRPRPRPRSGPRP | 0.815 |
| RRIRMRPPRLPRPRPRPRSYPRP | 0.068 |
| RRIRMRPPRLPRPRPRPRTRPRP | 1.09 |
| RRIRMRPPRLPRPRPRPRVLPRP | 1.12 |
| RRIRMRPPRLPRPRPRPRWSPRP | 0.803 |
| RRIRMRPPRLPRPRPRPRYAPRP | 0.467 |
| RRIRMRPPRLPRPRPRPSARPRP | 1.07 |
| RRIRMRPPRLPRPRPRPSDQPRP | -0.198 |
| RRIRMRPPRLPRPRPRPSGDPRP | 0.839 |
| RRIRMRPPRLPRPRPRPSHEPRP | 0.267 |
| RRIRMRPPRLPRPRPRPSHIPRP | -0.659 |
| RRIRMRPPRLPRPRPRPSHSPRP | -0.266 |
| RRIRMRPPRLPRPRPRPSKAPRP | 0.455 |
| RRIRMRPPRLPRPRPRPSKCPRP | -0.0848 |

| Sequence | shrunken log2 fold change |
| --- | --- |
| RRIRMRPPRLPRPRPRPSKQPRP | 0.495 |
| RRIRMRPPRLPRPRPRPSKRPRP | 0.386 |
| RRIRMRPPRLPRPRPRPSMTPRP | 2.18 |
| RRIRMRPPRLPRPRPRPSNIPRP | -0.227 |
| RRIRMRPPRLPRPRPRPSPAPRP | 1.83 |
| RRIRMRPPRLPRPRPRPSPPPRP | 0.74 |
| RRIRMRPPRLPRPRPRPSRDPRP | 0.257 |
| RRIRMRPPRLPRPRPRPSSEPRP | -0.103 |
| RRIRMRPPRLPRPRPRPSTGPRP | 0.17 |
| RRIRMRPPRLPRPRPRPSWLPRP | 0.0725 |
| RRIRMRPPRLPRPRPRPSWVPRP | 0.051 |
| RRIRMRPPRLPRPRPRPTANPRP | 0.921 |
| RRIRMRPPRLPRPRPRPTATPRP | 3.59 |
| RRIRMRPPRLPRPRPRPTCRPRP | 0.32 |
| RRIRMRPPRLPRPRPRPTCYPRP | 0.0375 |
| RRIRMRPPRLPRPRPRPTDCPRP | -0.0353 |
| RRIRMRPPRLPRPRPRPTEQPRP | -0.0171 |
| RRIRMRPPRLPRPRPRPTFEPRP | -0.0436 |
| RRIRMRPPRLPRPRPRPTGCPRP | 0.588 |
| RRIRMRPPRLPRPRPRPTHWPRP | 0.864 |
| RRIRMRPPRLPRPRPRPTHYPRP | 0.226 |
| RRIRMRPPRLPRPRPRPTIPPRP | -0.316 |
| RRIRMRPPRLPRPRPRPTKPPRP | 0.0618 |
| RRIRMRPPRLPRPRPRPTLWPRP | 0.968 |
| RRIRMRPPRLPRPRPRPTMHPRP | 0.488 |

| Sequence | shrunken log2 fold change |
| --- | --- |
| RRIRMRPPRLPRPRPRPTPEPRP | 0.713 |
| RRIRMRPPRLPRPRPRPTPIPRP | 0.255 |
| RRIRMRPPRLPRPRPRPTRIPRP | 0.447 |
| RRIRMRPPRLPRPRPRPTRKPRP | 1.6 |
| RRIRMRPPRLPRPRPRPTRSPRP | 1.35 |
| RRIRMRPPRLPRPRPRPTSAPRP | 0.74 |
| RRIRMRPPRLPRPRPRPTSFPRP | 0.347 |
| RRIRMRPPRLPRPRPRPTSIPRP | -0.0517 |
| RRIRMRPPRLPRPRPRPTSTPRP | 0.16 |
| RRIRMRPPRLPRPRPRPTVFPRP | 0.498 |
| RRIRMRPPRLPRPRPRPTVLPRP | 0.477 |
| RRIRMRPPRLPRPRPRPTVVPRP | 0.0159 |
| RRIRMRPPRLPRPRPRPTVWPRP | 0.736 |
| RRIRMRPPRLPRPRPRPTWKPRP | -0.0427 |
| RRIRMRPPRLPRPRPRPTWQPRP | 0.288 |
| RRIRMRPPRLPRPRPRPTYGPRP | -0.00932 |
| RRIRMRPPRLPRPRPRPVCGPRP | 0.898 |
| RRIRMRPPRLPRPRPRPVDAPRP | 1.17 |
| RRIRMRPPRLPRPRPRPVDKPRP | 0.0379 |
| RRIRMRPPRLPRPRPRPVEAPRP | 0.396 |
| RRIRMRPPRLPRPRPRPVEDPRP | 0.358 |
| RRIRMRPPRLPRPRPRPVEGPRP | -0.000687 |
| RRIRMRPPRLPRPRPRPVEVPRP | 0.389 |
| RRIRMRPPRLPRPRPRPVIHPRP | 0.0153 |
| RRIRMRPPRLPRPRPRPVIRPRP | 0.00204 |

| Sequence | shrunken log2 fold change |
| --- | --- |
| RRIRMRPPRLPRPRPRPVISPRP | -0.28 |
| RRIRMRPPRLPRPRPRPVITPRP | 0.043 |
| RRIRMRPPRLPRPRPRPVKQPRP | 0.0432 |
| RRIRMRPPRLPRPRPRPVKRPRP | -0.0121 |
| RRIRMRPPRLPRPRPRPVLVPRP | 0.223 |
| RRIRMRPPRLPRPRPRPVMCPRP | 0.321 |
| RRIRMRPPRLPRPRPRPVMIPRP | 0.021 |
| RRIRMRPPRLPRPRPRPVQCPRP | -0.0134 |
| RRIRMRPPRLPRPRPRPVQFPRP | 0.276 |
| RRIRMRPPRLPRPRPRPVRTPRP | 0.673 |
| RRIRMRPPRLPRPRPRPVSPPRP | 0.418 |
| RRIRMRPPRLPRPRPRPVSSPRP | -0.0703 |
| RRIRMRPPRLPRPRPRPVTQPRP | 0.317 |
| RRIRMRPPRLPRPRPRPVTVPRP | 0.0436 |
| RRIRMRPPRLPRPRPRPVVSPRP | 0.095 |
| RRIRMRPPRLPRPRPRPVWKPRP | 0.178 |
| RRIRMRPPRLPRPRPRPVWMPRP | 0.169 |
| RRIRMRPPRLPRPRPRPVYAPRP | 0.243 |
| RRIRMRPPRLPRPRPRPWCVPRP | 0.0904 |
| RRIRMRPPRLPRPRPRPWDCPRP | 0.00902 |
| RRIRMRPPRLPRPRPRPWDTPRP | -0.0606 |
| RRIRMRPPRLPRPRPRPWEHPRP | 0.0244 |
| RRIRMRPPRLPRPRPRPWEVPRP | -0.00931 |
| RRIRMRPPRLPRPRPRPWGCPRP | 0.311 |
| RRIRMRPPRLPRPRPRPWHKPRP | -0.00776 |
